Test results from US9993529B2, “Stable formulations of a hyaluronan-degrading enzyme” (Halozyme, Inc., priority 2011, dated 2018).
Like-named read-outs stand apart in the source and are kept apart here.

How the values were obtained:
[1] = molecular target: T1, rHuPH20 (Homo sapiens, UniProt P38567); settings: for retained % of the original activity / rHuPH20 activity (initial 600 U/mL): 75 mM NaCl
T1 sequence (P38567 36-482): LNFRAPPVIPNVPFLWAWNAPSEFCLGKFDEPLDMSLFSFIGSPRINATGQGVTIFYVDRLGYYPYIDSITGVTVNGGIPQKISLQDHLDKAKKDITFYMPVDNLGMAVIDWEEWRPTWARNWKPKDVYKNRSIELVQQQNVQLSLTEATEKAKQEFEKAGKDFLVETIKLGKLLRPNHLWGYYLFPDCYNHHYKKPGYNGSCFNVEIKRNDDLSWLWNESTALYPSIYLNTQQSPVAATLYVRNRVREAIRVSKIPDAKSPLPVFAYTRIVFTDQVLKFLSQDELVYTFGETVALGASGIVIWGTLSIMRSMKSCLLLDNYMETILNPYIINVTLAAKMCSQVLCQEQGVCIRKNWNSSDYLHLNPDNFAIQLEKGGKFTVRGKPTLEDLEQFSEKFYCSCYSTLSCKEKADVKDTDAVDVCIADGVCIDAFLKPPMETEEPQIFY
Protocol: The activity of a hyaluronan degrading enzyme can be assessed using methods well known in the art. […] A Hyaluronidase Reference Standard (USP) or National Formulary (NF) Standard Hyaluronidase solution can be used in an assay to ascertain the activity, in units, of any hyaluronidase. In one example, activity is measured using a microturbidity assay. […] The turbidity of the resulting sample is measured at 640 nm after an additional development period.

[2] = Dynamic light scattering, particle size and apparent melting temperature of rHuPH20; assay type: physicochemical; set-up: unit not given here
[3] = Differential scanning calorimetry, Tm of rHuPH20; assay type: physicochemical; settings: DSC, presence of […] m-cresol
[4] = 1 week 30° C., pH 7.1, 10 mg/mL HA

B1: rHuPH20: secreted soluble recombinant human PH20 hyaluronidase expressed in CHO cells (nucleic acid encoding amino acids 36-482 of SEQ ID NO:1) (protein, listed as Homo sapiens)
chain: LNFRAPPVIPNVPFLWAWNAPSEFCLGKFDEPLDMSLFSFIGSPRINATGQGVTIFYVDRLGYYPYIDSITGVTVNGGIPQKISLQDHLDKAKKDITFYMPVDNLGMAVIDWEEWRPTWARNWKPKDVYKNRSIELVQQQNVQLSLTEATEKAKQEFEKAGKDFLVETIKLGKLLRPNHLWGYYLFPDCYNHHYKKPGYNGSCFNVEIKRNDDLSWLWNESTALYPSIYLNTQQSPVAATLYVRNRVREAIRVSKIPDAKSPLPVFAYTRIVFTDQVLKFLSQDELVYTFGETVALGASGIVIWGTLSIMRSMKSCLLLDNYMETILNPYIINVTLAAKMCSQVLCQEQGVCIRKNWNSSDYLHLNPDNFAIQLEKGGKFTVRGKPTLEDLEQFSEKFYCSCYSTLSCKEKADVKDTDAVDVCIADGVCIDAFLKPPMETEEPQIFY
modifications: precursor human PH20
- rHuPH20 enzymatic activity ([1]; 1 mM methionine, 30° C., one month): 525 U/mL
- rHuPH20 enzymatic activity ([1]; 20 mM methionine, 30° C., one month): 522 U/mL
- retained % of the original activity ([1]; 1 week 30° C., pH 7.1, 1 mg/mL HA): 57%
- % of the original rHuPH20 remained ([1]; 1 week 30° C., pH 7.1, 5.5 mg/mL HA, 100 mM NaCl): 68%
- rHuPH20 activity (initial 600 U/mL) [1, 4]: 510 U/mL
- retained % of the original activity [1, 4]: 85%
- rHuPH20 enzymatic activity ([1]; 2-8° C., 5 Months, pH 7.0, 50 mM NaCl): 494.4796
- rHuPH20 enzymatic activity ([1]; 2-8° C., 5 Months, pH 7.0, 80 mM NaCl): 575.3274
- rHuPH20 enzymatic activity ([1]; 2-8° C., 5 Months, pH 7.0, 110 mM NaCl): 615.3546
- rHuPH20 enzymatic activity ([1]; 2-8° C., 5 Months, pH 7.0, 140 mM NaCl): 582.4274
- rHuPH20 enzymatic activity ([1]; 2-8° C., 5 Months, pH 7.2, 50 mM NaCl): 481.6035
- rHuPH20 enzymatic activity ([1]; 2-8° C., 5 Months, pH 7.2, 80 mM NaCl): 566.2521
- rHuPH20 enzymatic activity ([1]; 2-8° C., 5 Months, pH 7.2, 110 mM NaCl): 593.2027
- rHuPH20 enzymatic activity ([1]; 2-8° C., 5 Months, pH 7.2, 140 mM NaCl): 585.9948
- rHuPH20 enzymatic activity ([1]; 2-8° C., 5 Months, pH 7.4, 50 mM NaCl): 526.6628
- rHuPH20 enzymatic activity ([1]; 2-8° C., 5 Months, pH 7.4, 80 mM NaCl): 564.7769
- rHuPH20 enzymatic activity ([1]; 2-8° C., 5 Months, pH 7.4, 110 mM NaCl): 618.3856
- rHuPH20 enzymatic activity ([1]; 2-8° C., 5 Months, pH 7.4, 140 mM NaCl): 585.9813
- rHuPH20 enzymatic activity ([1]; 2-8° C., 5 Months, pH 7.6, 80 mM NaCl): 546.4209
- rHuPH20 enzymatic activity ([1]; 2-8° C., 5 Months, pH 7.6, 110 mM NaCl): 581.6326
- rHuPH20 enzymatic activity ([1]; 2-8° C., 5 Months, pH 7.6, 140 mM NaCl): 594.6197
- rHuPH20 enzymatic activity ([1]; 2-8° C., 9 Months, pH 7.0, 50 mM NaCl): 436.5115
- rHuPH20 enzymatic activity ([1]; 2-8° C., 9 Months, pH 7.0, 80 mM NaCl): 513.9692
- rHuPH20 enzymatic activity ([1]; 2-8° C., 9 Months, pH 7.0, 110 mM NaCl): 551.0218
- rHuPH20 enzymatic activity ([1]; 2-8° C., 9 Months, pH 7.0, 140 mM NaCl): 554.6513
- rHuPH20 enzymatic activity ([1]; 2-8° C., 9 Months, pH 7.2, 50 mM NaCl): 451.8324
- rHuPH20 enzymatic activity ([1]; 2-8° C., 9 Months, pH 7.2, 80 mM NaCl): 518.0740
- rHuPH20 enzymatic activity ([1]; 2-8° C., 9 Months, pH 7.2, 110 mM NaCl): 553.1847
- rHuPH20 enzymatic activity ([1]; 2-8° C., 9 Months, pH 7.2, 140 mM NaCl): 536.7846
- rHuPH20 enzymatic activity ([1]; 2-8° C., 9 Months, pH 7.4, 50 mM NaCl): 466.1871
- rHuPH20 enzymatic activity ([1]; 2-8° C., 9 Months, pH 7.4, 80 mM NaCl): 509.9032
- rHuPH20 enzymatic activity ([1]; 2-8° C., 9 Months, pH 7.4, 110 mM NaCl): 560.4847
- rHuPH20 enzymatic activity ([1]; 2-8° C., 9 Months, pH 7.4, 140 mM NaCl): 542.4534
- rHuPH20 enzymatic activity ([1]; 2-8° C., 9 Months, pH 7.6, 50 mM NaCl): 464.8964
- rHuPH20 enzymatic activity ([1]; 2-8° C., 9 Months, pH 7.6, 80 mM NaCl): 515.3382
- rHuPH20 enzymatic activity ([1]; 2-8° C., 9 Months, pH 7.6, 110 mM NaCl): 531.9202
- rHuPH20 enzymatic activity ([1]; 2-8° C., 9 Months, pH 7.6, 140 mM NaCl): 523.5385
- rHuPH20 enzymatic activity ([1]; insulin/rHuPH20 follow up study, starting): 650 U/mL
- rHuPH20 activity (initial 600 U/mL) ([1]; rHuPH20/insulin, 1 week 30° C., pH 7.1, 1 mg/mL HA): 341 U/mL
- rHuPH20 enzymatic activity ([1]; regular insulin/rHuPH20, 2-8° C., 5 Months, pH 7.6, 50 mM NaCl): 508.0571
- Average particle size (DLS) ([2]; 20 ° C.): 9.48
- Average particle size (DLS) ([2]; 22 ° C.): 9.19
- Average particle size (DLS) ([2]; 24 ° C.): 9.89
- Average particle size (DLS) ([2]; 26 ° C.): 9.96
- Average particle size (DLS) ([2]; 28 ° C.): 9.27
- Average particle size (DLS) ([2]; 30 ° C.): 8.94
- Average particle size (DLS) ([2]; 32 ° C.): 8.96
- Average particle size (DLS) ([2]; 34 ° C.): 9.42
- Average particle size (DLS) ([2]; 36 ° C.): 9.28
- Average particle size (DLS) ([2]; 38 ° C.): 8.91
- Average particle size (DLS) ([2]; 40 ° C.): 9.39
- Average particle size (DLS) ([2]; 42 ° C.): 9.72
- Average particle size (DLS) ([2]; 44 ° C.): 11.36
- Average particle size (DLS) ([2]; 46 ° C.): 13.08
- Average particle size (DLS) ([2]; 48 ° C.): 21.35
- Average particle size (DLS) ([2]; 50 ° C.): 22.74
- Average particle size (DLS) ([2]; 52 ° C.): 28.50
- Average particle size (DLS) ([2]; 54 ° C.): 32.95
- Average particle size (DLS) ([2]; 56 ° C.): 37.01
- reduction of Tm of rHuPH20 [3]: about 2 °C
